Experimental data taken from paper doi:10.1101/2022.11.15.516482 (bioRxiv, 2022).

Key:
[1] = target: Salpingoeca rosetta caveolin (F2U793) (Salpingoeca rosetta); experiment: cryo-EM structure
cryo-EM structure = target: the molecule itself; experiment: cryo-EM structure

stoichiometry N [1] | Molecule | stoichiometry N (cryo-EM structure)
11 | Salpingoeca rosetta caveolin (F2U793) (natural protein) | –
– | Strongylocentrotus purpuratus caveolin (A0A7M7T4C2) (natural protein, UniProt A0A7M7T4C2 1-159, looked up) MELIHPENGPSGTVQVPLIQGVDQSDTEDVYRLSPHVTTGFADTFKESNDIMGFSFMEKVNGAIYKYTHFAFYAVLNLLLAPFIAFSFGLSFAVMHFAVVWFVQPIMKLYYVWLRVFNLAYEPALRLVCDPIHRSIALILSGIKGQFKMNSSDVKTSQV | 11
